Like-named read-outs stand apart in the source and are kept apart here.

Our source for the Kd, koff and kon values is patent US20240241109A1 (NATIONAL JEWISH HEALTH, published 2024).

In assay [1] the target is T1, wildtype SARS-COV-2 spike receptor binding domain (RBD) (SARS-COV-2 (wildtype), UniProt P0DTC2 320-541).
Assay [2] addresses T1, wildtype SARS-COV-2 spike receptor …. The experiment in a line: SPR (Biacore). On the technique in general: SPR reads the build-up and loss of mass on a sensor chip optically.

B1: Etesevimab (LY-CoV016) (antibody, V domains shown)
VH: EVQLVESGGGLVQPGGSLRLSCAASGFTVSSNYMSWVRQAPGKGLEWVSVIYSGGSTFYADSVKGRFTISRDNSMNTLFLQMNSLRAEDTAVYYCARVLPMYGDYLDYWGQGTLVTVSS
VL: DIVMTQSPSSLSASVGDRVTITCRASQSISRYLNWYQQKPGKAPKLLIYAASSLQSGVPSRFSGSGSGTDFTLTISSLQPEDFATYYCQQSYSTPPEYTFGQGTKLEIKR
For orientation: Kd means the equilibrium constant for the complex coming apart. A high value points to a looser complex. Broadly, the koff is the rate constant with which the complex falls apart. In general, kon refers to the rate constant with which the complex forms. Take B1: in assay [1], binding was put at a Kd of 6.83 nM, the koff is 0.00988 s⁻¹ and the kon came out at 1.46e+06 M⁻¹ s⁻¹. In assay [2], this molecule came in with a Kd of 6.8 nM.
